Data from paper PMC3013012 (The Journal of Biological Chemistry, 2010).
Like-named read-outs stand apart in the source and are kept apart here. Square brackets hold non-standard residues; d marks the D form. Ends that are not written are not given here. Lys(Me3) = C[N+](C)(C)CCCC[C@H](N)C(=O)O

Tests used:
[1] = biological target: T1, His6-tagged Cbx7 chromodomain (peptide arrays) (human, UniProt O95931 8-62); assay: peptide or protein array
T1 sequence: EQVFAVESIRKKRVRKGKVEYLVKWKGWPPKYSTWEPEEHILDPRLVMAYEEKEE

[2] = biological target: T2, Cbx7 chromodomain, Cbx7-(8–62) (human, UniProt O95931 8-62)
T2 sequence: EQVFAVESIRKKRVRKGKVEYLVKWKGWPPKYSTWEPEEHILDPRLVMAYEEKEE

[3] = biological target: His6-tagged Cbx3 chromodomain (peptide arrays) (human, UniProt Q13185 29-81); assay: peptide or protein array
Chain of His6-tagged Cbx3 chromodomain (peptide arrays) (Q13185 29-81): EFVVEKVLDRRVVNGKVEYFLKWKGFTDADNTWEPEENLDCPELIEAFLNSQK

[4] = biological target: T3, Cbx8 chromodomain, Cbx8-(8–61) (human, UniProt Q9HC52 8-61); assay: fluorescence polarisation
T3 sequence: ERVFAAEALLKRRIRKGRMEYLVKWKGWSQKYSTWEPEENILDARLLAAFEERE

[5] = biological target: T2, Cbx7 chromodomain, Cbx7-(8–62); assay: fluorescence polarisation
[6] = biological target: T4, Cbx6 chromodomain, Cbx6-(8–65) (human, UniProt O95503 8-65); assay: fluorescence polarisation
T4 sequence: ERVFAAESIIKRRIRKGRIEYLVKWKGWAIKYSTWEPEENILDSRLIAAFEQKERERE

[7] = biological target: T5, Cbx2 chromodomain, Cbx2-(9–66) (human, UniProt Q14781 9-66); assay: fluorescence polarisation
T5 sequence: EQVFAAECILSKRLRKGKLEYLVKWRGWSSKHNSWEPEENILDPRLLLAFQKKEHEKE

[8] = biological target: T6, Cbx4 chromodomain, Cbx4-(8–65) (human, UniProt O00257 8-65); assay: fluorescence polarisation
T6 sequence: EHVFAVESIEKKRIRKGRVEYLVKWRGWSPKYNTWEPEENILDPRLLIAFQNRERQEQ

[9] = biological target: Cbx5 chromodomain, Cbx5-(18–75) (human, UniProt P45973 18-75); assay: fluorescence polarisation
Chain of Cbx5 chromodomain, Cbx5-(18–75) (P45973 18-75): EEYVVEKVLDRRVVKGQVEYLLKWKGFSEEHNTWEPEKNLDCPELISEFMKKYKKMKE

[10] = biological target: Cbx1 chromodomain, Cbx1-(20–73) (human, UniProt P83916 20-73); assay: fluorescence polarisation
Chain of Cbx1 chromodomain, Cbx1-(20–73) (P83916 20-73): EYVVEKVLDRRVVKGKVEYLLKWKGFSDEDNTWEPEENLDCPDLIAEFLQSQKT

[11] = biological target: T3, Cbx8 chromodomain, Cbx8-(8–61)

ATKAAR[Lys(Me3)]SAPATG (also: held on a cellulose membrane through a polyethylglycol linker) [histone H3 residues 21–33 with trimethylated Lys-27, membrane-immobilized array peptide]: binds [1].

RGFAL[Lys(Me3)]STHG [SETDB1 peptide 1165-RGFALKme3STHG] gave a Kd [2] of 5 µM.

TKNTAR[Lys(Me3)]STGGKA (also: held on a cellulose membrane through a polyethylglycol linker) [histone H3 residues 3–15, K9me3, Gln-5 to Asn array peptide]: binds [3].

TKHTAR[Lys(Me3)]STGGKA (also: held on a cellulose membrane through a polyethylglycol linker) [histone H3 residues 3–15, K9me3, Gln-5 to His array peptide]: binds [3].

QLATKAARKSAPATG (trimethyllysine at 27; fluorescein on the N-terminus) [H3K27Me3 peptide (QLATKAARK(me3)SAPATG), fluorescein-labeled] was tested, and the Kd [4] was greater than 500 µM, the Kd [5] was 110 µM and the Kd [6] was greater than 500 µM. For the same binder, the Kd [7] was 185 µM and the Kd [8] was 205 µM.

TKQTAR[Lys(Me3)]STGGKA (also: held on a cellulose membrane through a polyethylglycol linker) [histone H3 residues 3–15 with trimethylated Lys-9, membrane-immobilized array peptide]: binds [3]; binds [1].

TKQVAR[Lys(Me3)]STGGKA (also: held on a cellulose membrane through a polyethylglycol linker) [histone H3 residues 3–15, K9me3, T6V array peptide]: binds [3].

ARTKQTARKSTGGKA (trimethyllysine at 9; fluorescein on the N-terminus) [H3K9Me3 peptide (ARTKQTARK(me3)STGGKA), fluorescein-labeled] was tested, and the Kd [9] was 30 µM, the Kd [10] was 5 µM and the Kd [8] was 70 µM.

fluorescein-QLATKTAR[Lys(Me3)]SAPATG [H3K27Me3A24T peptide (QLATKTARK(me3)SAPATG), fluorescein-labeled] gave a Kd [4] greater than 500 µM, a Kd [5] of 210 µM and a Kd [6] greater than 500 µM. The Kd [7] was 330 µM and the Kd [8] was 250 µM.

fluorescein-ARTKQAAR[Lys(Me3)]STGGKA [H3K9Me3T6A peptide (ARTKQAARK(me3)STGGKA), fluorescein-labeled] was tested, and the Kd [5] was 140 µM, the Kd [10] was 45 µM and the Kd [8] was 80 µM.

TKCTAR[Lys(Me3)]STGGKA (also: held on a cellulose membrane through a polyethylglycol linker) [histone H3 residues 3–15, K9me3, Gln-5 to Cys array peptide]: binds [3].

RQVAV[Lys(Me3)]STR [SETDB1 peptide RQVAVKme3STR] gave a Kd [11] of 98 µM and a Kd [2] of 43 µM.

HGIAI[Lys(Me3)]STN [SETDB1 peptide HGIAIKme3STN] gave a Kd [11] of 37 µM and a Kd [2] of 5 µM.
